Measurements as given in patent US8084228B2, “Nogo-B receptor antagonists” (Yale University, priority 2006, dated 2011).
Entries after “also recorded” stand apart in the source; their conditions may differ. One block for each molecule: values may come before it. d = 2'-deoxy (DNA)

Assays:
[1] = tested on: NgBR mRNA; test: NgBR mRNA by quantitative PCR after siRNA transfection of HUVEC; format: cell-based, human; conditions: 72 hours after transfection, normalized to 18S
Description: (§1) NgBR siRNA oligonucleotides (SEQ ID NOS:2-5) with 3′ dTdT overhangs were synthesized by Qiagen. Control siRNA in experiments refers to a nonsilencing (NS) siRNA (NS forward: UUCUCCGAACGUGUCACGU, SEQ ID NO:7; NS reverse: ACGUGACACGUUCGGAGAA, SEQ ID NO:8) designed and synthesized by Qiagen. HUVEC and CHO stable cell lines were transfected with siRNA by using Oligofectamine. Quantification of NgBR mRNA and protein, ligand binding assay, and migration assay were performed at 72 hours after transfection.
Total RNA from cells was isolated by using the RNeasy kit (Qiagen). Reverse transcription was then performed by using 100 ng of RNA and the Superscript First-Strand Synthesis System kit (Invitrogen). Real-time PCR analysis was done with the iCycler iQ detection system using the iQ SYBR green Supermix kit (Bio-Rad). The NgBR mRNA level was normalized by housekeeping gene 18S. The following primers were used for NgBR: forward, 5′-[…]-3′ (SEQ ID NO:9) and reverse, 5′-[…]-3′ (SEQ ID NO:10). The following primers were used for 18S: forward, 5′-[…]-3′ (SEQ ID NO:11) and reverse, 5′-[…]-3′ (SEQ ID NO:12).

[2] = tested on: HUVEC; test: AP-Am-Nogo-B binding to HUVEC after siRNA transfection; format: cell-based, human; conditions: 72 hours after siRNA transfection
Description: (§2) To detect AP-Am-Nogo-B binding, cultures were washed with Hanks' balanced salt solution (HBSS) containing 20 mM HEPES, pH 7.5, and 1 mg/mL BSA (HBH). The plates were then incubated with AP-Am-Nogo-B in DMEM containing 20 mM Hepes, pH 7.5, and 1 mg/mL BSA for 2 hours at 4° C. The bound AP-Am-Nogo-B was detected by using the Blue Substrate kit (Vector Laboratories). The blue staining was examined by using the ODYSSEY Infrared Imaging System (Li-Cor, Lincoln, Nebr.) and confirmed by microscopy. Alternatively, the bound AP-Am-Nogo-B was extracted with Triton X-100, and AP activity was colorimetrically quantified by using p-nitrophenyl phosphate (Sigma) as substrate after heat inactivation of endogenous AP. Non-specific binding was determined by measuring binding in the presence of a 100-fold molar excess of recombinant Am-Nogo-B lacking the AP fusion protein. Specific binding was determined by subtracting the non-specific binding from total binding. For determination of apparent Kd, the binding of AP-Am-Nogo-B was measured in triplicate as described above and the Kd value was quantified by using the Scatchard plot program of GraphPad PRISM (one-site binding, linear regression) using the ratio of bound ligand to free ligand as the y axis and bound ligand (pM) as the x axis.
as §1

[3] = tested on: NgBR protein; test: NgBR protein level after siRNA transfection of HUVEC; format: cell-based, human; conditions: 72 hours after transfection
Description: Single NgBR cDNA clones were isolated by sib selection and sequenced. A NgBR-HA was created in pIRESneo vector (BD, Palo Alto, Calif.), with the HA tag at the carboxy terminus. To access the physical interaction of NgBR with Am-Nogo-B, 50 μg of solubilized extracts of CHO cells expressing control vector (pIRESneo) or NgBR-HA was incubated with 25 μg of purified Am-Nogo-B or buffer for 2 hours at room temperature. The HA-tagged NgBR was immunoisolated with anti-HA immunobeads (Roche, Indianapolis, Ind.) and associated proteins analyzed by Western blotting. For the Western blots, expression of NgBR-HA was detected by using anti-HA (Roche) and NgBR (Imgenex), respectively, and beta-actin (Sigma) or Hsp90 (BD Biosciences-Pharmingen) was used to control for loading.
as §1

[4] = molecular target: T1, full-length NgBR (Homo sapiens, UniProt Q96E22); test: AP-Am-Nogo-B binding after S2 siRNA in cells expressing the full-length NgBR; format: cell-based
T1 construct: expressed in transfected cells
T1 sequence (Q96E22 1-293): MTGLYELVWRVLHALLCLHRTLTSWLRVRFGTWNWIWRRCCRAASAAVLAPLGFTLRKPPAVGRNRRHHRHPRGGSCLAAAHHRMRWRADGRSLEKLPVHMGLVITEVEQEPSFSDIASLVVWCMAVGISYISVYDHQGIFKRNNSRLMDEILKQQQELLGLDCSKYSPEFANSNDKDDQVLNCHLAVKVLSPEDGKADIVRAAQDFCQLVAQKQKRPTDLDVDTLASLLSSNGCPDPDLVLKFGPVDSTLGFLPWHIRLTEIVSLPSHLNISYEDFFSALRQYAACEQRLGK
Description: as §2
NgBR siRNA oligonucleotides (SEQ ID NOS:2-5) with 3′ dTdT overhangs were synthesized by Qiagen. […]

[5] = tested on: HUVEC; test: Am-Nogo-B-mediated chemotaxis of HUVEC after siRNA transfection; format: cell-based, human; conditions: 72 hours after siRNA transfection
Description: (§3) Cell migration was examined in modified Boyden chambers using 10 nM each of purified recombinant AP, AP fusion of Nogo-66 (AP-Nogo-66) or Am-Nogo-B. The transwell inserts (Costar transwell inserts; Corning) were coated with a solution of 0.1% gelatin (Sigma) in PBS at 4° C. overnight and then air-dried. VEGF at 50 ng/mL (1.1 nM) or recombinant Am-Nogo-B at various concentrations dissolved in medium 199 containing 0.1% BSA was added in the bottom chamber of the Boyden apparatus. HUVEC (200,000 cells) suspended in a 100 μL aliquot of medium 199 containing 0.1% BSA was added to the upper chamber. After 5 hours incubation, cells on both sides of the membrane were fixed and stained with a Diff-Quik staining kit (Baxter Healthcare, Miami, Fla.). The average number of cells from five randomly chosen high-power (×400) fields on the lower side of the membrane was counted.
as §1

[6] = tested on: HUVEC; test: Tube formation of HUVEC in 3-D collagen cultures (total network length); format: cell-based, human; conditions: Am-Nogo-B 80 nM, HUVEC treated with siRNA
Description: HUVEC were resuspended (final concentration of 1×10^6) in a mixture containing rat tail type I collagen (1.5 mg/mL) 1/10 volume of 10×M199 and 1 M Hepes, neutralized with NaOH. Droplets (0.1 mL each) of the cell/collagen mixture were placed in cell culture dishes and allowed to polymerize for 15 minutes at 37° C. Growth medium containing either vehicle or agonist was then added to each well. HUVEC were allowed to form tube-like structures for 1-2 days. To evaluate tube formation in 3-D cultures, cells were photographed using the program OPENLAB (Improvision) and total-network length, defined as an elongation of cell into tube-like structures typically seen in 3-D cultures, was quantified in five fields for each replicate per experiment by using the measurement tools provided with OPENLAB.

[7] = tested on: CHO cells; test: AP fusion protein binding to untransfected CHO cells
Description: as §2

[8] = molecular target: T2, Nogo receptor (Homo sapiens, UniProt Q9BZR6); test: AP fusion protein binding to COS cells transfected with cDNA encoding the Nogo receptor; conditions: COS cells (FIG. 6)
T2 construct: expressed in transfected cells; host or cells: COS-7
T2 sequence (Q9BZR6 27-447): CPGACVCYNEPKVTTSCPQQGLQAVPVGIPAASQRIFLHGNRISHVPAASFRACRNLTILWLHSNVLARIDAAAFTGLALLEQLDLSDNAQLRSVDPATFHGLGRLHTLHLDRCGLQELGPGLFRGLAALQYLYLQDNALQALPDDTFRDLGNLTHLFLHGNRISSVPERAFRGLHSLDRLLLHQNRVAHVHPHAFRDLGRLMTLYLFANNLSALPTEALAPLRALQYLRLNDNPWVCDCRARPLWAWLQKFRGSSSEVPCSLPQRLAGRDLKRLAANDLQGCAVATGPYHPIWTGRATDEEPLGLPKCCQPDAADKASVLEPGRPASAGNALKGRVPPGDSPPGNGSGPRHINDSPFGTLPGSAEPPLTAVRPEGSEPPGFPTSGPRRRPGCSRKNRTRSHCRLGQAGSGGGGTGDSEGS
Description: as §2
(§4) For expression cloning of Am-Nogo-B receptor, pools of 5,000 arrayed clones from a human heart cDNA library (OriGene Technologies, Rockville, Md.) were transfected into COS-7 cells, and AP-Am-Nogo-B binding was assessed by using AP versus AP-Am-Nogo-B binding and detection of the AP product by near-infrared cell imaging (Li-Cor, Lincoln, Nebr.) or AP activity assays.

[9] = molecular target: T3, NgBR (Homo sapiens, UniProt Q96E22); test: AP fusion protein binding to CHO cells expressing NgBR; design: an isolated cDNA encoding NgBR is 2,636 base pairs encoding an open reading frame of 293 amino acids; expressed in transfected cells; conditions: for surface binding of AP fusion domains to NgBR-expressing cells: CHO cells expressing NgBR (FIGS. 11, 14); for binding to CHO cells stably expressing NgBR: increasing concentrations, 2 hours at 4° C.
T3 sequence (Q96E22 1-293): T1 sequence (Q96E22 1-293)
Description: as §2
A recombinant AP-Am-Nogo-B fusion protein was used to screen a cDNA expression library from human heart (500,000 independent clones) transfected into COS or CHO cells using Lipofectamine 2000 (Invitrogen). COS-7 cells were cultured in high-glucose DMEM with 10% FBS. CHO cells were cultured in MEM-α with 5% FBS.

[10] = tested on: HUVEC; test: Binding of AP fusion proteins to the surface of HUVEC; design: species or system human; conditions: HUVEC (FIGS. 12, 15)
Description: as §2

[11] = molecular target: T3, NgBR; test: AP fusion protein binding to COS cells transfected with the isolated NgBR cDNA; design: an isolated cDNA encoding NgBR is 2,636 base pairs encoding an open reading frame of 293 amino acids; expressed in transfected cells; host or cells: COS-7 (A4); conditions: COS cells (FIG. 6)
Description: as §2, §4
Single NgBR cDNA clones were isolated by sib selection and sequenced. […] The HA-tagged NgBR was immunoisolated with anti-HA immunobeads (Roche, Indianapolis, Ind.) and associated proteins analyzed by Western blotting. For the Western blots, expression of NgBR-HA was detected by using anti-HA (Roche) and NgBR (Imgenex), respectively, and beta-actin (Sigma) or Hsp90 (BD Biosciences-Pharmingen) was used to control for loading.

[12] = tested on: HUVEC; test: HUVEC migration in modified Boyden chambers; format: cell-based, human; conditions: 10 nM purified recombinant protein, 5 hours
Description: The migratory response of human umbilical vein endothelial cells (HUVEC) in response to a gradient of recombinant, purified alkaline phosphatase (AP) fusion protein expressing Am-Nogo-B or a recombinant purified Am-Nogo-B was examined. HUVEC were cultured in M199 with 20% FBS and endothelial cell growth supplement (ECGS).
as §3

Molecule: S1: siRNA targeting the coding region of NgBR mRNA; forward CCAGAAUUUGCAAAUAGUA, reverse UACUAUUUGCAAAUUCUGG (SEQ ID NO: 2, 3) (3' dTdT, sugars by position and backbone not given here)
- level of NgBR mRNA [1]: downregulates
- binding of AP-Am-Nogo-B to HUVEC [2]: reduces
- NgBR protein level [3]: down-regulates

Molecule: S2: siRNA targeting the 3' untranslated region of NgBR; forward GGAAAUACAUAGACCUACA, reverse UGUAGGUCUAUGUAUUUCC (SEQ ID NO: 4, 5) (3' dTdT, sugars by position and backbone not given here)
- level of NgBR mRNA [1]: reduced
- binding of AP-Am-Nogo-B to HUVEC [2]: reduced
- binding of AP-Am-Nogo-B in cells expressing the full-length NgBR [4]: reduced
- Am-Nogo-B-mediated chemotaxis of HUVEC [5]: abolished
- NgBR protein level [3]: reduced
- Am-Nogo-B-stimulated increase in tube formation after siRNA [6]: attenuated

- binding to COS cells transfected with Nogo receptor cDNA [8]: do not bind
- surface binding of AP fusion domains to NgBR-expressing cells [9]: did
- surface binding of AP fusion domains to HUVEC [10]: did
B1: AP-Am-Nogo-B: purified alkaline phosphatase (AP) fusion protein with residues 1-200 at the amino terminus of Nogo-B (protein)
chain: MEDLDQSPLVSSSDSPPRPQPAFKYQFVREPEDEEEEEEEEEEDEDEDLEELEVLERKPAAGLSAAPVPTAPAAGAPLMDFGNDFVPPAPRGPLPAAPPVAPERQPSWDPSPVSSTVPAPSPLSAAAVSPSKLPEDDEPPARPPPPPPASVSPQAEPVWTPPAPAPAAPPSTPAAPKRRGSSGSVVVDLLYWRDIKKTGV
modifications: left off: small tags and cut ends; large carriers
notes: purified alkaline phosphatase (AP) fusion protein with residues 1-200 at the amino terminus of Nogo-B
- binding to CHO cells [7]: minimal binding
- binding to CHO cells stably expressing NgBR [9]: permits the binding; also recorded: permitted binding

- binding to COS cells transfected with the isolated NgBR cDNA [11]: not
- binding to COS cells transfected with Nogo receptor cDNA [8]: do not bind
- surface binding of AP fusion domains to NgBR-expressing cells [9]: did not bind
- binding to CHO cells stably expressing NgBR [9]: not
- surface binding of AP fusion domains to HUVEC [10]: did not bind
B2: alkaline phosphatase (protein, UniProt P05187 23-506, looked up)
Alkaline phosphatase, …: IIPVEEENPDFWNREAAEALGAAKKLQPAQTAAKNLIIFLGDGMGVSTVTAARILKGQKKDKLGPEIPLAMDRFPYVALSKTYNVDKHVPDSGATATAYLCGVKGNFQTIGLSAAARFNQCNTTRGNEVISVMNRAKKAGKSVGVVTTTRVQHASPAGTYAHTVNRNWYSDADVPASARQEGCQDIATQLISNMDIDVILGGGRKYMFRMGTPDPEYPDDYSQGGTRLDGKNLVQEWLAKRQGARYVWNRTELMQASLDPSVTHLMGLFEPGDMKYEIHRDSTLDPSLMEMTEAALRLLSRNPRGFFLFVEGGRIDHGHHESRAYRALTETIMFDDAIERAGQLTSEEDTLSLVTADHSHVFSFGGYPLRGSSIFGLAPGKARDRKAYTVLLYGNGPGYVLKDGARPDVTESESGSPEYRQQSAVPLDEETHAGEDVAVFARGPQAHLVHGVQEQTFIAHVMAFAACLEPYTACDLAPPAGTTD
notes: purified recombinant alkaline phosphatase, control for AP fusion proteins
- binding to CHO cells [7]: minimal binding
- HUVEC migration [12]: does not promote
